Where two headings read alike, the source gives them in different places.
Experiments:
[1] = molecular target: T1, Hfq65 R16A/R17A (Escherichia coli, UniProt P0A6X3 1-65, R16A;R17A); experiment: NMR titration
[2] = molecular target: HfqFL WT (Escherichia coli, UniProt P0A6X3 1-102); experiment: EMSA
[3] = molecular target: HfqFL F42S (Escherichia coli, UniProt P0A6X3 1-102, F42S); experiment: fluorescence polarization
[4] = molecular target: HfqFL Y25A (Escherichia coli, UniProt P0A6X3 1-102, Y25A); experiment: fluorescence polarization
[5] = molecular target: T2, Hfq65 (Escherichia coli, UniProt P0A6X3 1-65); experiment: X-ray crystallography
[6] = molecular target: T1, Hfq65 R16A/R17A; experiment: NMR titration; remark: listed apart in the source
[7] = molecular target: T2, Hfq65; experiment: X-ray crystallography; remark: listed apart in the source

AACAACAAG (ssRNA) [rpoS-AC (unlabeled)]
binding result [1]: binds

GGGAACAACAAGAAGUUAAGGCGGGGCAAAAAAUA (ssRNA) [rpoS-AA]
binding result [2]: binds

AAAAAAA (ssRNA) [A7]
binding result [3]: binds

AUUUUUUA (ssRNA) [AU6A]
binding result [4]: binds

AUUUUUUA (ssRNA) [AU6A (unlabeled)]
binding result [5]: binds
binding result [6]: binds

AAAAAAA (ssRNA) [A7 (unlabeled)]
binding result [7]: binds

AACAACAAG (ssRNA) [rpoS-AC]
binding result [3]: binds

— publication PMC3675490
